Results reported in patent publication US20080193921, “Methods to identify agents that bind the flap-tip helix of RNA polymerase” (Wisconsin Alumni Research Foundation, published 2008).

How the values were obtained:
[1] = target: RNA polymerase beta L902P beta L902P (Escherichia coli) (UniProt P0A7Z4+P0A8V2+P0A8T7+P0A800); details: -sigma70; SD 0.05
[2] = target: RNA polymerase beta delta(900-909) beta deletion 900-909 (Escherichia coli) (UniProt P0A7Z4+P0A8V2+P0A8T7+P0A800); details: -sigma70; SD 0.02
[3] = target: RNA polymerase sigma70 holoenzyme, beta L902P beta L902P (Escherichia coli) (UniProt P0A7Z4+P0A8V2+P0A8T7+P0A800+P00579); details: +sigma70; SD 0.09
[4] = target: RNA polymerase beta F906A beta F906A (Escherichia coli) (UniProt P0A7Z4+P0A8V2+P0A8T7+P0A800); details: -sigma70; SD 0.14
[5] = target: RNA polymerase sigma70 holoenzyme, wild-type (Escherichia coli) (UniProt P0A7Z4+P0A8V2+P0A8T7+P0A800+P00579); details: +sigma70; SD 0.1
[6] = target: RNA polymerase sigma70 holoenzyme, beta L901Q beta L901Q (Escherichia coli) (UniProt P0A7Z4+P0A8V2+P0A8T7+P0A800+P00579); details: +sigma70; SD 0.07
[7] = target: RNA polymerase sigma70 holoenzyme, beta delta(900-909) beta deletion 900-909 (Escherichia coli) (UniProt P0A7Z4+P0A8V2+P0A8T7+P0A800+P00579); details: +sigma70; SD 0.05
[8] = target: RNA polymerase core, wild-type (alpha2 beta beta' omega) (Escherichia coli) (UniProt P0A7Z4+P0A8V2+P0A8T7+P0A800); details: [3H]UMP incorporation, -sigma70; SD 0.05
[9] = target: RNA polymerase sigma70 holoenzyme, beta I905N beta I905N (Escherichia coli) (UniProt P0A7Z4+P0A8V2+P0A8T7+P0A800+P00579); details: +sigma70; SD 0.02
[10] = target: RNA polymerase beta L901R beta L901R (Escherichia coli) (UniProt P0A7Z4+P0A8V2+P0A8T7+P0A800); details: -sigma70; SD 0.05
[11] = target: RNA polymerase beta I905N beta I905N (Escherichia coli) (UniProt P0A7Z4+P0A8V2+P0A8T7+P0A800); details: -sigma70; SD 0.04
[12] = target: RNA polymerase sigma70 holoenzyme, beta F906A beta F906A (Escherichia coli) (UniProt P0A7Z4+P0A8V2+P0A8T7+P0A800+P00579); details: +sigma70; SD 0.15
[13] = target: RNA polymerase beta L901Q beta L901Q (Escherichia coli) (UniProt P0A7Z4+P0A8V2+P0A8T7+P0A800); details: -sigma70; SD 0.05
[14] = target: RNA polymerase sigma70 holoenzyme, beta L901R beta L901R (Escherichia coli) (UniProt P0A7Z4+P0A8V2+P0A8T7+P0A800+P00579); details: +sigma70; SD 0.07
σ^70 lacking region 4 = σ^70 lacking region 4 (UniProt P00579); experiment: trypsin protection of the β flap-tip by σ70 lacking region 4; wild-type RNAP without σ: 9.2 ± 0.1
σ^70 lacking region 1 = σ^70 lacking region 1 (UniProt P00579); experiment: trypsin protection of the β flap-tip by σ70 lacking region 1; wild-type RNAP without σ: 9.2 ± 0.1
[15] = target: σ^70 lacking region 1 and region 4 (UniProt P00579); experiment: trypsin protection of the β flap-tip by σ70 lacking regions 1 and 4; wild-type RNAP without σ: 9.2 ± 0.1
[16] = target: T1, RNA polymerase core, wild-type (alpha2 beta beta' omega) (Escherichia coli, UniProt P0A7Z4;P0A8V2;P0A8T7;P0A800 P0A7Z4:1-329,P0A8V2:1-1342,P0A8T7:1-1407,P0A800:2-91); experiment: UV crosslinking (5-iodoU) in paused TEC; mapped to beta 904-908; details: tags: N-terminal His6 on beta; beta' C-terminal intein-CBD removed by DTT; chain copies: 2,1,1,1; label: 32P; hairpin
Experimental: (§1) First, paused TECs containing either wild-type or βK909C mutant RNAPs and a wild-type pause hairpin loop derivatized with 5-iodoU and [α-³²P]CMP were prepared (FIG. 1A). The 5-iodoU crosslink was mapped by cleaving the crosslinked β subunit either to completion with trypsin or partially with 2-nitro-5-thiobenzoic-acid (NTCB), and by separating the cleavage products on SDS polyacrylamide gels (8-16% gradient; FIG. 6A). Trypsin cleavage was performed prior to disruption of the TEC, which results in cleavage within β only at R903 and K909 (Boruhkov et al., 1991). […] NTCB cleaves at Cys residues, which are present at seven positions in wild-type β and eight in βK909C.

[17] = target: RNA polymerase beta K909C (Escherichia coli, UniProt P0A7Z4;P0A8V2;P0A8T7;P0A800 P0A7Z4:1-329,P0A8V2:1-1342,P0A8T7:1-1407,P0A800:2-91, beta K909C); experiment: UV crosslinking in paused TEC; crosslink maps between 903 and 909; details: tags: N-terminal His6 on beta; chain copies: 2,1,1,1; label: 32P; hairpin
Experimental: as §1

[18] = target: RNA polymerase beta F906A (Escherichia coli, UniProt P0A7Z4;P0A8V2;P0A8T7;P0A800 P0A7Z4:1-329,P0A8V2:1-1342,P0A8T7:1-1407,P0A800:2-91, beta F906A); experiment: 4-thioU crosslink retained while 5-iodoU crosslink lost; hairpin-flap interaction not altered; details: tags: N-terminal His6 on beta, beta' intein-CBD removed by DTT, chain copies: 2,1,1,1, label: 32P
[19] = target: T1, RNA polymerase core, wild-type (alpha2 …); experiment: 5-iodoU UV crosslinking in paused TEC; details: tags: N-terminal His6 on beta; beta' C-terminal intein-CBD removed by DTT; chain copies: 2,1,1,1; label: 32P; hairpin

Molecule: poly(dA dT)
- binding signal (relative to wild-type core) [1]: 1.2
- binding signal (relative to wild-type core) [2]: 0.95
- binding signal (relative to wild-type core) [3]: 1.5
- binding signal (relative to wild-type core) [4]: 1
- binding signal (relative to wild-type core) [5]: 2
- binding signal (relative to wild-type core) [6]: 1.4
- binding signal (relative to wild-type core) [7]: 0.9
- binding signal (relative to wild-type core) [8]: 1
- binding signal (relative to wild-type core) [9]: 1.3
- binding signal (relative to wild-type core) [10]: 1.2
- binding signal (relative to wild-type core) [11]: 1
- binding signal (relative to wild-type core) [12]: 2.1
- binding signal (relative to wild-type core) [13]: 1.2
- binding signal (relative to wild-type core) [14]: 1.5

Molecule: wild-type Escherichia coli RNA polymerase (core enzyme, α, β, β′ subunits)
- β cleavage rate + σ^70 (σ^70 lacking region 4): 0.011 s⁻¹
- β cleavage rate + σ^70 (σ^70 lacking region 1): 0.0062 s⁻¹
- β cleavage rate + σ^70 [15]: 0.011 s⁻¹

B1: his pause RNA hairpin, wild-type (ssRNA)
RNA: CCUGACUAGUCUUUCAGG
modifications: 5-iodoU or 4-thioU in hairpin loop
- binding result [16]: binds
- binding result [17]: binds
- binding result [18]: binds

B2: his pause RNA, tetraloop hairpin (ssRNA)
RNA: CCUGCUUCGGCAGGCGAUGUGUGCUG
modifications: 5-iodoU in hairpin loop
- binding result [19]: binds
